Data published in the supplement of paper PMC7125110.
± gives the standard error. For part of these data: Fewer inactive variants are shown than the library holds.

B1: glmS ribozyme (parent)
chain: AUAAAAGCGCCAGAACUACAGAAAUGUAGUUGACGAGGAGGAGGUUUAUCGAAUUUUCGGCGGAUGCCUCCAAA

Key:
Settings in all cases: with glucosamine-6-phosphate
[1] = variants of: B1; assay: kcat; higher = faster cleavage; RNA array
Summary of the method: (§1)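 On sequenced MiSeq chips, barcoded ribozyme variants were made in situ by E. coli RNA polymerase and followed at 37 °C through a hybridised Cy3 probe. Glucosamine-6-phosphate was flowed in at 40 μM to 10 mM in HEPES/KCl/Mg(OAc)2 buffer. Exponential fits to normalised per-tile medians gave kobs, and weighted Michaelis–Menten fits gave kcat and KM.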

[2] = variants of: B1; assay: KM; higher = weaker cofactor use; RNA array
Summary of the method: as §1

[3] = variants of: B1; assay: self-cleavage kobs at 160 uM GlcN6P; higher = faster cleavage; RNA array
Summary of the method: as §1

[4] = variants of: B1; assay: self-cleavage kobs at 640 uM GlcN6P; higher = faster cleavage; RNA array
Summary of the method: as §1

[5] = variants of: B1; assay: self-cleavage kobs at 2500 uM GlcN6P; higher = faster cleavage; RNA array
Summary of the method: as §1

[6] = variants of: B1; assay: self-cleavage kobs at 10000 uM GlcN6P; higher = faster cleavage; RNA array
Summary of the method: as §1

[7] = variants of: B1; assay: self-cleavage kobs at 40 uM GlcN6P; higher = faster cleavage; RNA array
Summary of the method: as §1

| Variant | kcat [1] [s⁻¹] | KM [2] [µM] | self-cleavage kobs at 160 uM GlcN6P [3] [s⁻¹] | self-cleavage kobs at 640 uM GlcN6P [4] [s⁻¹] | self-cleavage kobs at 2500 uM GlcN6P [5] [s⁻¹] | self-cleavage kobs at 10000 uM GlcN6P [6] [s⁻¹] | self-cleavage kobs at 40 uM GlcN6P [7] [s⁻¹] |
| --- | --- | --- | --- | --- | --- | --- | --- |
| G29C A53C | 0.000417 ± 2.8e-05 | 1380 ± 180 | 4.1e-05 ± 1.7e-05 | 0.00013 ± 1.7e-05 | 0.00029 ± 4.5e-05 | 0.000356 ± 5.1e-05 |  |
| G13A C50A | < 1e-05 |  |  |  |  | < 1e-05 | < 1e-05 |
| A33G U65A C70G | 4e-05 ± 6.6e-06 | 627 ± 310 |  |  |  |  | < 1e-05 |
| A39C | 0.00949 ± 0.0017 | 2180 ± 510 | 0.000491 ± 1.8e-05 | 0.00208 ± 7.2e-05 | 0.00591 ± 0.00018 | 0.00752 ± 0.00019 | 0.000188 ± 3.3e-06 |
| A42G U49G | 0.00144 ± 0.00033 | 3190 ± 1100 | 5.71e-05 ± 1.4e-05 | 0.000275 ± 4.4e-05 | 0.000609 ± 9.7e-05 | 0.0011 ± 0.00017 | 5.36e-05 ± 2.3e-05 |
| A39C A42C | 6.31e-05 ± 3.9e-06 | 890 ± 270 |  | 3.24e-05 ± 1.5e-05 | 4.41e-05 ± 9.6e-06 | 5.88e-05 ± 8.3e-06 |  |
| G29A C67G | 0.00016 ± 1.6e-05 | 1710 ± 390 |  | 4.67e-05 ± 1e-05 | 8.59e-05 ± 1.7e-05 | 0.000145 ± 2.5e-05 |  |
| A48U A53U | 0.000308 ± 4.1e-05 | 1960 ± 750 |  | 0.000104 ± 3.1e-05 | 0.000161 ± 2e-05 | 0.000265 ± 2.8e-05 |  |
| A15U U54A | 0.00741 ± 0.001 | 1360 ± 360 | 0.00059 ± 0.00026 | 0.00262 ± 0.00048 | 0.00516 ± 0.0014 | 0.00623 ± 0.0012 |  |
| A53C C68G | < 1e-05 |  |  |  |  |  |  |
| C34A G51U C67U | 0.000275 ± 1.8e-05 | 2730 ± 390 |  | 4.9e-05 ± 2e-05 | 0.00014 ± 3.7e-05 | 0.000213 ± 4.5e-05 |  |
| C10U G60A C71U | 1.14e-05 ± 1.1e-06 | 2050 ± 570 |  |  |  |  |  |
| A15G U47C | 0.0057 ± 0.00076 | 1660 ± 350 | 0.000348 ± 0.00016 | 0.00164 ± 0.0005 | 0.00388 ± 0.00099 | 0.00476 ± 0.00083 | 0.000151 ± 3.2e-05 |
| C50G G63C | 2.84e-05 ± 1.1e-05 |  | 3.67e-05 ± 1.6e-05 |  |  |  |  |
| U54A U69A | 0.00011 ± 2.2e-05 |  | 0.000107 ± 1.5e-05 | 0.000109 ± 1.9e-05 | 0.000141 ± 2.3e-05 | 8.28e-05 ± 1.5e-05 |  |
| C11A A12U U45G U55A C70U | 0.00104 ± 0.00013 |  |  |  | 7.5e-05 ± 3.1e-05 | 0.000245 ± 5.6e-05 |  |
